Assay in all cases: ITC
A general note: In ITC the heat of successive injections is recorded.

Experiment [1] concerns the target T1, Ankyrin-G 24 ANK repeats (residues 38-855) (UniProt O70511 38-855).
T1 chain: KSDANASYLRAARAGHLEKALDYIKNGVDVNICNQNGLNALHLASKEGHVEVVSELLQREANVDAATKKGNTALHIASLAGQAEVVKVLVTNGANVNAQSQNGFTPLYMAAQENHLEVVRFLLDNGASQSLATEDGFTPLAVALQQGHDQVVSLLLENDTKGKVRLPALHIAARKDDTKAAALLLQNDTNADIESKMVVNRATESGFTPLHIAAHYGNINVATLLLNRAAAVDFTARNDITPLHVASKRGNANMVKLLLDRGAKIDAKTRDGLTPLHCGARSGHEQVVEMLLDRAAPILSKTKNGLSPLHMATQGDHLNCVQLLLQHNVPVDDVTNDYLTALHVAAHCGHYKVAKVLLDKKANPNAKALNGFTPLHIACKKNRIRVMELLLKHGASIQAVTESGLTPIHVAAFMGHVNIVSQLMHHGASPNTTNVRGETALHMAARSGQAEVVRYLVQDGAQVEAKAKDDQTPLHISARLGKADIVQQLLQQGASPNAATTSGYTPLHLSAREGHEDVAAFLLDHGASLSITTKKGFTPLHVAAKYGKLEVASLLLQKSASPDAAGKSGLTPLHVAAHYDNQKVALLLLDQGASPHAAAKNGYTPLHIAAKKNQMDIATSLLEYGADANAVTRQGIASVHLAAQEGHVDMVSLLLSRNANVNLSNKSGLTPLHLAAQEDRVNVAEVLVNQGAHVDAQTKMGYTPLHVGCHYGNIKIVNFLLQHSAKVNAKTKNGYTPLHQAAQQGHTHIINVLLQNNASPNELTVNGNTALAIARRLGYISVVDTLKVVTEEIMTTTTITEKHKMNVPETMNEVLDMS

The target in experiment [2] is E-cadherin CTD site-1, 3 to A (mouse, UniProt P09803 734-884, Y755A | Y756A | Y757A | Y861A | Y863A | W867A).
Experiment [3] addresses E-cadherin CTD site-2, 3 to A (mouse, UniProt P09803 734-884, Y829A | Y837A | Y861A | Y863A | W867A).
Experiment [4] deals with E-cadherin CTD site-1, 2, 3 to A (a total of 8 aromatic residue substitutions) (mouse, UniProt P09803 734-884, Y755A | Y756A | Y757A | Y829A | Y837A | Y861A | Y863A | W867A).
The target in experiment [5] is E-cadherin CTD site-2 to A (mouse, UniProt P09803 734-884, Y829A | Y837A).
The target in experiment [6] is E-cadherin CTD site-1 to A (mouse, UniProt P09803 734-884, Y755A | Y756A | Y757A).
Experiment [7] addresses E-cadherin CTD site-3 to A (mouse, UniProt P09803 734-884, Y861A | Y863A | W867A).
For experiment [8], the target named is E-cadherin CTD site-1, 2 to A (mouse, UniProt P09803 734-884, Y755A | Y756A | Y757A | Y829A | Y837A).
Experiment [9] has as its target T1, Ankyrin-G 24 ANK repeats (residues …).
Experiment [10] has as its target T2, Ankyrin-G ANK repeats 8-14 (UniProt O70511 275-500).
T2 chain: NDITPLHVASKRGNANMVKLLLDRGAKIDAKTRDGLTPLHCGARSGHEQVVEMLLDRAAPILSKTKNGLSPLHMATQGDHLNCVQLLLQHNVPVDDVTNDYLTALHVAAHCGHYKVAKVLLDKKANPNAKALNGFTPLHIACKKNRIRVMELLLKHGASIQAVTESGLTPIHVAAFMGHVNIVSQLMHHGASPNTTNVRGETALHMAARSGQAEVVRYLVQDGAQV

A further experiment has as its target T3, AnkG R6-24 (Rattus norvegicus).
T3 chain: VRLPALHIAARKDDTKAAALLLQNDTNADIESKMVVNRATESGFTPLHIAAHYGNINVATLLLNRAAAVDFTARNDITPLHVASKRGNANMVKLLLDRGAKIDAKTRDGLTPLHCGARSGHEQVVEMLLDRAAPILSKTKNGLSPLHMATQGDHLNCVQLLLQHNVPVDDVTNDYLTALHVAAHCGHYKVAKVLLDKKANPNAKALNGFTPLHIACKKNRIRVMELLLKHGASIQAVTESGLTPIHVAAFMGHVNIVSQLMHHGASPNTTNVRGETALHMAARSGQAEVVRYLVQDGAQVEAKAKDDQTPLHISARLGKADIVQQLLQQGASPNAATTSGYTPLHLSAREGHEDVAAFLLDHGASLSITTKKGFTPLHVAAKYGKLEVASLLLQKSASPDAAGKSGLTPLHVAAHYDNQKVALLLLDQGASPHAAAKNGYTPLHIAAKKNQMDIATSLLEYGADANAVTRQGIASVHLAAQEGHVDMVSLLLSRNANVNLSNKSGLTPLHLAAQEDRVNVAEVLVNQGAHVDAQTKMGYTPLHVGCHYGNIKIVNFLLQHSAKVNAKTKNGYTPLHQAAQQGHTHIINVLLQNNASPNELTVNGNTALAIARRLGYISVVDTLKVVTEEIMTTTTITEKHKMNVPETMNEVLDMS

One may read the Kd as a measure of binding affinity in units of concentration.

Read-outs that look alike come from different tables or passages of the source.

B1: E-cadherin 734-775 (domain or fragment)
chain: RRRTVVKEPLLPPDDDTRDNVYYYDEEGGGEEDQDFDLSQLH
B1: binding in experiment [1] was characterised by a dissociation constant (Kd) of 1.5 µM.

B2: full-length β-catenin 1-781 (natural protein)
chain: MATQADLMELDMAMEPDRKAAVSHWQQQSYLDSGIHSGATTTAPSLSGKGNPEEEDVDTSQVLYEWEQGFSQSFTQEQVADIDGQYAMTRAQRVRAAMFPETLDEGMQIPSTQFDAAHPTNVQRLAEPSQMLKHAVVNLINYQDDAELATRAIPELTKLLNDEDQVVVNKAAVMVHQLSKKEASRHAIMRSPQMVSAIVRTMQNTNDVETARCTAGTLHNLSHHREGLLAIFKSGGIPALVKMLGSPVDSVLFYAITTLHNLLLHQEGAKMAVRLAGGLQKMVALLNKTNVKFLAITTDCLQILAYGNQESKLIILASGGPQALVNIMRTYTYEKLLWTTSRVLKVLSVCSSNKPAIVEAGGMQALGLHLTDPSQRLVQNCLWTLRNLSDAATKQEGMEGLLGTLVQLLGSDDINVVTCAAGILSNLTCNNYKNKMMVCQVGGIEALVRTVLRAGDREDITEPAICALRHLTSRHQEAEMAQNAVRLHYGLPVVVKLLHPPSHWPLIKATVGLIRNLALCPANHAPLREQGAIPRLVQLLVRAHQDTQRRTSMGGTQQQFVEGVRMEEIVEGCTGALHILARDVHNRIVIRGLNTIPLFVQLLYSPIENIQRVAAGVLCELAQDKEAAEAIEAEGATAPLTELLHSRNEGVATYAAAVLFRMSEDKPQDYKKRLSVELTSSLFRTEPMAWNETADLGLDIGAQGEALGYRQDDPSYRSFHSGGYGQDALGMDPMMEHEMGGHHPGADYPVDGLPDLGHAQDLMDGLPPGDSNQLAWFDTDL
In the case of B2, the Kd stood at 0.098 µM in [2]; 1.4 µM in experiment [3]; 8.1 µM in experiment [4]; 4.8 µM in [5]; 0.056 µM in [6]; 0.11 µM in experiment [7]. The molecule further showed a dissociation constant Kd in experiment [8] of 3.6 µM.

B3: E-cadherin site-2 Y837A (domain or fragment)
chain: PYDSLLVFDAEGSGS
As to B3, in experiment [9], binding was put at a Kd of 9.5 µM. This lies in the single-digit micromolar range.

B4: E-cadherin site-1 Y755A (domain or fragment)
chain: AYYDEEGGGEEDQDFD
On to B4, for which the Kd in experiment [9] was 5 µM.

B5: E-cadherin site-3 W867A (domain or fragment)
chain: ESDQDQDYDYLNEAGN
In the case of B5, in [9], binding was put at a Kd of 3.9 µM.

B6: E-cadherin 776-884 (domain or fragment)
chain: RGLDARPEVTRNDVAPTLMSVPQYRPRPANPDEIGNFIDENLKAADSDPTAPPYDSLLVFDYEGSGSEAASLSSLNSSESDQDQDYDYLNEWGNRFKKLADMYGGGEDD
B6: binding in experiment [1] was characterised by a dissociation constant (Kd) of 0.8 µM. That is a sub-micromolar value.

B7: p120 catenin 324-938 (domain or fragment)
chain: MIGEEVPPDQYYWAPLAQHERGSLASLDSLRKGMPPPSNWRQPELPEVIAMLGFRLDAVKSNAAAYLQHLCYRNDKVKTDVRKLKGIPILVGLLDHPKKEVHLGACGALKNISFGRDQDNKIAIKNCDGVPALVRLLRKARDMDLTEVITGTLWNLSSHDSIKMEIVDHALHALTDEVIIPHSGWEREPNEDCKPRHIEWESVLTNTAGCLRNVSSERSEARRKLRECDGLVDALIFIVQAEIGQKDSDSKLVENCVCLLRNLSYQVHREIPQAERYQEALPTVANSTGPHAASCFGAKKGKDEWFSRGKKPTEDPANDTVDFPKRTSPARGYELLFQPEVVRIYISLLKESKTPAILEASAGAIQNLCAGRWTYGRYIRSALRQEKALSAIAELLTSEHERVVKAASGALRNLAVDARNKELIGKHAIPNLVKNLPGGQQNSSWNFSEDTVVSILNTINEVIAENLEAAKKLRETQGIEKLVLINKSGNRSEKEVRAAALVLQTIWGYKELRKPLEKEGWKKSDFQVNLNNASRSQSSHSYDDSTLPLIDRNQKSDKKPDREEIPMSNMGSNTKSLDNNYSTLNERGDHNRTLDRSGDLGDMEPLKGAPLMQKI
Regarding B7, the Kd in experiment [2] is greater than 30 µM; in [3] it was 1.8 µM; in experiment [4] it was greater than 50 µM; in [5] it was 2.8 µM; in experiment [6] it was greater than 50 µM; in [7] it was 2.9 µM. In addition, the dissociation constant Kd in experiment [8] is greater than 70 µM.

B8: E-cadherin 751-775 (site-1) (domain or fragment)
chain: RDNVYYYDEEGGGEEDQDFDLSQLH
B8: the Kd in [10] is 8.9 µM; with AnkG R6-24, 1.8 µM.

B9: E-cadherin site-3 Y863A (domain or fragment)
chain: ESDQDQDYDALNEWGN
In the case of B9, the dissociation constant Kd in [9] came to 3.9 µM. In other words, the single-digit micromolar range.

B10: E-cadherin 755-770 Y755A,Y756A (peptide)
chain: AAYDEEGGGEEDQDFD
In experiment [9], B10 came in with a Kd of 4.2 µM.

B11: E-cadherin site-2 Y829A (domain or fragment)
chain: PADSLLVFDYEGSGS
In experiment [9], B11 showed a Kd of 1.7 µM. This Kd is about 2.5-fold lower than that of the molecule before.

B12: E-cadherin 828-869 (containing both site-2 and site-3) (domain or fragment)
chain: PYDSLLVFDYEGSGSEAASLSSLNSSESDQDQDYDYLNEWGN
For B12, the Kd in experiment [10] worked out at 7.1 µM; in the experiment with AnkG R6-24, 1 µM.

B13: E-cadherin 755-770 Y756A,Y757A (peptide)
chain: YAADEEGGGEEDQDFD
Molecule B13 returned a Kd in experiment [9] of 7.1 µM. This counts as single-digit micromolar.

B14: E-cadherin site-1 Y756A (domain or fragment)
chain: YAYDEEGGGEEDQDFD
As to B14, the Kd in [9] stood at 2.2 µM.

B15: E-cadherin 755-770 Y755A,Y757A (peptide)
chain: AYADEEGGGEEDQDFD
Take B15: the Kd in experiment [9] amounted to 4.1 µM.

B16: E-cadherin 854-869 Y861A,Y863A (peptide)
chain: ESDQDQDADALNEWGN
With B16, the dissociation constant Kd in experiment [9] was 5.8 µM.

B17: E-cadherin site-3 Y861A (domain or fragment)
chain: ESDQDQDADYLNEWGN
Molecule B17 had a Kd in experiment [9] of 3.2 µM. This Kd lies about 1.8-fold lower than the previous one.

B18: E-cadherin site-1 Y757A (domain or fragment)
chain: YYADEEGGGEEDQDFD
B18: in [9], binding was characterised by a dissociation constant (Kd) of 2.2 µM. This Kd and that of the molecule before are within 1.5-fold of each other.

B19: E-cadherin 734-838 (protein)
chain: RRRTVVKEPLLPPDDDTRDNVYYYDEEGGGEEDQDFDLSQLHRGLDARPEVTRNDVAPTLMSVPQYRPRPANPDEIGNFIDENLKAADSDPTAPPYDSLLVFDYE
B19 displayed a Kd in experiment [1] of 1.1 µM. That is a single-digit micromolar value.

The values are drawn from article PMC10611751 (2023).
